Laboratory results taken from the supplement of paper PMC10567573.
± gives the standard deviation.

Assay: protein stability index of a GFP-peptide fusion (GPS, HEK-293T) (PSI 1-6); higher = more stable
Conditions: c terminus: a fixed tail appended
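Also: 24-mer peptide tiles fused after GFP, lentivirally expressed, FACS-sorted into six equal bins by GFP/DsRed ratio, decoded by Illumina sequencing, PSI is the read-weighted mean bin number.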

Sequence	protein stability index (treatment: DMSO)	protein stability index (treatment: MLN4924 1 uM, 8 h)
QGSRSGVSGGSRSLNMSRRDSEST [PHTF1]	4.86 ± 0.4	4.9 ± 0.22
FACPSQALFFKNIMNIIDIVSILP [KCNA4]	3.02 ± 0.073	2.85 ± 0.27
LGTELAERQGNGQQAMSLAILRVI [KCNA3]	2.42 ± 0.19	2.52 ± 0.12
EFSTSLFSGSLEPVACGSVLSEGS [SRPK2]	3.98 ± 0.19	4.04 ± 0.26
VETLLRHGAHINLQSLKFQGGHGP [RIPK4]	2.63 ± 0.39	3.11 ± 0.24
AGMGKVTSASFGEESTPGQTNSET [HDAC6]	5.3 ± 0.29	5.25 ± 0.1
VGELNGYLRDSSPAPCADGPAGGL [PWWP2B]	4.29 ± 0.23	4.16 ± 0.068
CQTGGVEDQEEWHAQVVEELSNFK [ZBED1]	5.73 ± 0.26	5.6 ± 0.16
LTLVFFVQITGQPNILFYASTVLK [SLC2A12]	3.19 ± 0.51	3.5 ± 0.59
SAGSPPELQGLPELHEECEGNHPS [NET1]	5.46 ± 0.17	5.56 ± 0.16
PDEANVGKHPKDKTEDENKQSFLD [TOR1AIP2]	5.42 ± 0.21	5.75 ± 0.2
QCPYCQRRFNENAADRHINFCKEQ [ZC2HC1A]	4.91 ± 0.38	5.09 ± 0.2
EQKNHTFPRLNRNKYMVTDGAAYI [PLD5]	2.85 ± 0.078	3.19 ± 0.24
LTWSELFVLNAAQCSMPLHVAPLL [NR2F2]	2.98 ± 0.21	3.16 ± 0.32
VPVDTGVAARTPAVEGLTEAEEEE [TPD52L2]	5.51 ± 0.15	5.4 ± 0.13
MIGLYEPELGSGAGPAGTGTPSLL [EMID1]	3.89 ± 0.53	3.65 ± 0.71

Sequence	protein stability index (treatment: DMSO)	protein stability index (treatment: MLN4924 1 uM, 8 h)
DSGDSKDIRLTLMEEVLLLGLKDK [GOLPH3L]	3.24 ± 0.19	3.25 ± 0.34
AICGDRATGKHYGASSCDGCKGFF [HNF4A]	2.8 ± 0.24	2.98 ± 0.31
TASFRTSKYLLEEWFQNCYARYHQ [TEKT4]	1.89 ± 0.21	2.22 ± 0.24
YSYRRLGEEALSLQALDPQQCVDK [SLC22A15]	4.05 ± 0.45	4.05 ± 0.31
TDAPEQFISQVTVLKYFSHYMEEN [PLK2]	2.09 ± 0.28	2.15 ± 0.23
LFSELAEDKENYKKFYEAFSKNLK [HSP90AB1]	2.83 ± 0.23	3.62 ± 0.17
TIFEKENFIGRQWEISDDYPSLQA [CRYBA1]	3.26 ± 0.29	3 ± 0.32
EGDATRDPGPEPEEEPGVRNGMAS [PSD2]	5.7 ± 0.16	5.38 ± 0.34
MVIHIPEEPRPSRPRYKADVPDLQ [KCNK9]	3.02 ± 0.21	3.24 ± 0.18
WPARVLDISLGQKEDGEPSWREAK [PWWP2B]	4.18 ± 0.12	4.27 ± 0.11
FPRMLLVDRLPGLQGALDLLAVLC [ZSWIM9]	2.29 ± 0.18	2.25 ± 0.084
RAPLHSVGYTALVGSDAESWGWDL [SPSB4]	2.81 ± 0.28	3.13 ± 0.17
DSEFSMQEPMVPAKLGTQAEKDRR [PPFIA4]	4.9 ± 0.77	5.646 ± 0.045
ADRPFSAPWWFWLSLTGVSLAGAL [POMT2]	2.93 ± 0.7	3 ± 0.48
EALITDPDEMRMQALLIRERILGP [FEM1A]	3.56 ± 0.26	3.45 ± 0.26
LAAKALLDQKKQDPRVQDFLQRCL [NET1]	2.28 ± 0.31	2.42 ± 0.25
